Experiment: yeast display, Sf9 membrane polyspecificity reagent, FACS + sequencing; frameworks hold sequencing errors
Method in brief: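 After 36–48 hours of galactose induction, yeast (Saccharomyces cerevisiae BJ5465) displaying a synthetic nanobody library were stained at 4 °C for 1 hour with 10% biotinylated, detergent-solubilized Sf9 membrane reagent. Streptavidin microbeads enriched the stained cells before FACS sorting into low and high (top ~1%) gates on anti-HA and streptavidin fluorescence. Each clone's polyreactivity label reflects its gate of origin.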

Sequence	polyreactivity (PSR sort gate)
QVQLVESGGGLVQAGGSLRLICAASGRIIGKNAMGWYRQARGKERELVAAIRYNGGRTYYADSVKGRFTISRDNAKNTVYLQMNSLKPEDTAVYYCAARWRSWRYKYDYWGQGTQVTVSS	high polyreactivity
QVQLVESGGGLVQAGGSLRLICAASGRILDIYALGWYRQAPGKERELVASISGSGSSTYYADSVKGRVTISRDNAKNTVYLQMNSLKPEDSAVYYCNAARSQGYEYATYGYWGQGSQVTVSS	low polyreactivity
QVQLVESGGGLVQAGGSLRLICAASGRILPLYAMGWYRQAPGKERELVADITGSDGSTYYADSVKGRFTISRDNAKNTVYLQMNSLKPEDTAVYYCATDAIGRTPSDPWDYYYWGQGTQVTVSS	low polyreactivity
QVQLVESGGGLVQAGGSLRLICAASGRIYIKNAMGWYRQAPGKERELVAAISSGSSTYYADSVKGRFTISRDNAKNSVYLQMYSLKPEDTAVYYCAAPDYRNGVRYPLDYWGQGTQVTVSS	low polyreactivity
QVQLVESGGGLVQAGGSLRLICAASGRIYWTYAMGWYRQAPGKERDLVAAISSGGSTNYADSVKGRFTISRDNAKNTVYLQMNSLKPEDTAVYYCAADRWYREYDYWGQGTQVTVSS	low polyreactivity
QVQLVESGGGLVQAGGSLRLICAASGRTFEDNAMGWYRQAPGKERELVAAISSDGSRNYADSVKGRFTISRDNAKNTVYLQMNSLKPEDTAVYYCNATVYWPYDWGTSDYWGQGTQVTVSS	low polyreactivity
QVQLVESGGGLVQAGGSLRLICAASGRTFENYAMGWYRQAPGKERELVAAISKSGGSTYYADSVKGRFTISRDNAKNPVYLQMNSLKPEDTAVYYCNARPGQSGARFGYWGQGTQVTVSS	high polyreactivity
QVQLVESGGGLVQAGGSLRLICAASGRTFGGYAMGWYRQAHGKERELVAAISDRGTSTYYADSVKGRFTISRDNAKYTVYLQMNSVKPEDTAVYYCAASSARRRMDYWGQGTQVTVSS	high polyreactivity
QVQLVESGGGLVQAGGSLRLICAASGRTFGTNTMGWYRQAPGKERELVATISSSSGSTYYADSVKGRFTISRDNAKNTVYLQMNSLKPEDSAVYYWAALYRWGYKRYDYWGQGTQVTVSS	high polyreactivity
QVQLVESGGGLVQAGGSLRLICAASGRTFKDYAMGWNRQAPGKERELVADISWSGGDTYYADSVKGRFTISRDNAKNTVYLQMNSLKPEDTAVYYCAADWSWCDGEDYHFEYDYWGQGTQVTVSS	low polyreactivity
QVQLVESGGGLVQAGGSLRLICAASGRTFLPNAMGWYRQAPGKERELVAVITSAGSTYYADSVKGRFTISRDNAKNTVYLQRNSLKPEDTAVYYCSADYLDYDLGDPPPRYYYWGQGTQVTVSS	low polyreactivity
QVQLVESGGGLVQAGGSLRLICAASGRTFNRYAMGWYRTAPRTERELVAVINSASSTNYADSVKGRFTISRDNAKNTVYLQMYSLKPEDTAVYYCNADGYRWYWYTGPMDYWGQGTKVTVSS	high polyreactivity
QVQLVESGGGLVQAGGSLRLICAASGRTFPGYAMGWYRPAPGKDRELVAAISNSGGRTYYADSVKGRFTISRDNAKKTVYLQMTSLKREDTAVYYCNATTDNGSNKRYYYWGQGTQVTVSS	high polyreactivity
QVQLVESGGGLVQAGGSLRLICAASGRTFRGYTMGWYRQAPGKERELVAAITWSGGSTYYADSVKGRFTISRDNAKNTVYLQMNSLKPEDTAVYYCAATKYLSFLYDYWGQGTLVTVSS	high polyreactivity
QVQLVESGGGLVQAGGSLRLICAASGRTFRRNAMGWYRQAPGKERELVAGIRSSGGSTYYADSVKGRFTISRDNAKNTVYLQMNSLKTEDTAVYYFAAAYRSASFPYDYWGQGTQVTVSS	high polyreactivity
QVQLVESGGGLVQAGGSLRLICAASGRTFTRYAMGWYRQAAGKERELVAAITSTGSTYYADSVKGRFTISRDNAKNTVYLQMNSLKPEDTAVYYCNKVGIRYYYGYDYWGQGTQVTVSS	high polyreactivity
QVQLVESGGGLVQAGGSLRLICAASGRTFWDYAMGWYRQAPGKERELVAAITASGTRTYYADSVKGRFTISRDNAKNTVFLQMNSLKPEDTAVYYCAAARIWWAHAYPTYVANDYWGQGTQVTVSS	high polyreactivity
QVQLVESGGGLVQAGGSLRLICAASGRTFYGYAMGWYRQAPGKERELVAAISTGGGRTYYADSVKGRFTISRDNAKNTVYLQMNSLKPEDTAVYYCAARRAYPHYRVDYWGPGTQVTVSS	high polyreactivity
QVQLVESGGGLVQAGGSLRLICAASGRTFYSKTMGWSRQAPGKEREFVAAIPSIVGSTYYADSVKGRFTISRDNAKITVYFKMNSLKPEDTAVYYCAVTDYYSYQLRYDSSGQGTQVTVSS	low polyreactivity
QVQLVESGGGLVQAGGSLRLICAASGRTFYSYAMGWYRQAPGKERELVASISSGGGTNYADSVKGRFTISRDNAKNTVYLQKNSLKPEDTAVYYCDVDPYPYRGYDYWGQGTQVTVSS	low polyreactivity
QVQLVESGGGLVQAGGSLRLICAASGRTFYVYAMAWYRQEPGKERELVAAISKSGGSTYYADSVKGRFTISRDNAKNSVYLPMNSLKPEDTAGYYCNRYRFVRQVRGGGLPYDYWGQGTQVTVSS	high polyreactivity
QVQLVESGGGLVQAGGSLRLICAASGRTIGRNAMRWSRQAPGKERELVAAISSSGGSTYYADSVKGRFTISRDKAKNTVYLQMNSLKPEDTAVYYCNARGWYGLRKYYYWGQGTQVTVSS	high polyreactivity

Sequence	polyreactivity (PSR sort gate)
QVQLVESGGGLVQAGGSLRLICAASGRTIRYYAMGWYRQAPGKERELVAAITQNGGRTYYADSVKGRFTISRDNAKNTVYLQMNSLKPEDTAVYYCAKAFIQPGDKYDSWGQGTQVTVSS	high polyreactivity
QVQLVESGGGLVQAGGSLRLICAASGRTLGYNARGWYRQAPGKETELVAAISYGGGGTYYADSVKGRFTISRDNAKNTVYLQMNSLKPEDTAVYYCAKPRAFVGYNHWGQGTQVTVSS	low polyreactivity
QVQLVESGGGLVQAGGSLRLICAASGRTLSGYAMGWYRQAPGKDRELVAVITSGGSTYYADSVKGRFTISRDNAKNTVYLQMNSLKPEDTAVYYCAARGSRLYSSWRGVYWGQGTQVTVSS	high polyreactivity
QVQLVESGGGLVQAGGSLRLICAASGRTSYTYVMGWYRQAPGKERELVAAIRLSGGNTYYADSVKGRFTISRDNAKNTVYLQMNSLKPEDTAVYYCAAQYWRHRKAYGYWGQGSQVTVSS	high polyreactivity
QVQLVESGGGLVQAGGSLRLICAASGRTYDKYVMGWYRQAPGKERELVSAISFRGVRTYYADSVKGRFTISRDNAKNTFYLQKNSLKPEDTGVYYCAARFTFSAIIGPYGYWGQGTQVTVSS	high polyreactivity
QVQLVESGGGLVQAGGSLRLICAASGSIFAGNAMGWYRQAPGKERELVAAITWSGGSTYYADSVKGRFTISRDNAKNTVYLQMNSLKPEDTAVYYCAAPTQADVVGYDYWGQGTQVTVSS	low polyreactivity
QVQLVESGGGLVQAGGSLRLICAASGSIFDWNAMGWYRQAPGKERELVATISWDGGSTYYADSVKGRFTISRDNAKNTVYLQMNSLKPEDTAVYYCATVFTGKPAYYARTKYDYWGQGTQVNVSS	low polyreactivity
QVQLVESGGGLVQAGGSLRLICAASGSIFFPYDMGWYRQAPGKERELVASITRAGSTNYADSVKGRFTISRDNAKNTVYLQMNSLKPEDTAVYYCAARNYRQFEYGYWGQGTQVTVSS	low polyreactivity
QVQLVESGGGLVQAGGSLRLICAASGSIFGHNAMGWYRQAPGKERELVAAINASDGNTYYADSVKGRFTISRDNAKNTVYLQMNSLKPEDTAVYYCAAEGYFDHYYYYRVYSWGQGTQVTVSS	low polyreactivity
QVQLVESGGGLVQAGGSLRLICAASGSIFGLYAMGWYRPAPGKEREFVASITYSGGSTYYADSVKGRFTISRDNAKNTVYLQMNSLKPEDTAVYYCAAESYWGYDYWGQGTQVTVSS	high polyreactivity
QVQLVESGGGLVQAGGSLRLICAASGSIFGSSAMGWYRQAPGKERSTYYADSVKGRFTISRDNAKNTVYLQMNSLKPEDTAVYYCAADTYGYQGSAGGHWGQGTQVTVSS	low polyreactivity
QVQLVESGGGLVQAGGSLRLICAASGSIFIGNTMGWYRQAPGKERELVATIRRSGSRTYYADSVKGRFTISRDNAKNTVYLQMNSLKPEDPAVYYCNAEGVGRYSPVSHTFDYWGQGTQVTLSS	low polyreactivity
QVQLVESGGGLVQAGGSLRLICAASGSIFITNAMGWYRQAPGKEREMVAAISGRGGSTYYADSVKGRFTISRDNAKNTVYLQMNSLKPEDTAVYYCNAYSYRVSGYDYWGQGTQVTVSS	high polyreactivity
QVQLVESGGGLVQAGGSLRLICAASGSIFITYAMGWSRQAPGKERELVAAIRRGGRTNYADSVKGRFTISRDNAKNTVYLQMNSLKPEDTAVYYCAAEFHTGWPYYPDYAYDYWGQGTQVTVSS	low polyreactivity
QVQLVESGGGLVQAGGSLRLICAASGSIFKIYAMGWYRQAPGKERELVARITRRGGRTNYADSVKGRFTISRDNAKNTVYLQINSLKPEDTAVYYCAATVYPSVYGENHYGYWGQGTQVTVSS	high polyreactivity
QVQLVESGGGLVQAGGSLRLICAASGSIFLFNAMGWYRQAPGKERQLVAAISKSGGSTHYADSVKGRFTISRDNAKNTVYLQMNSLKPEDSAVYYCAARVGDLGSQKTDSVYRVYYWGQGTQVTVSS	low polyreactivity
QVQLVESGGGLVQAGGSLRLICAASGSIFLLYDMGWYRQAPGKERELVAAITWSGGSTYYADSVKGRFTISRDNAKNTVYLQMNSLKPEDTAVYYCAADEPYPTAYEYWGQGTQVTVSS	low polyreactivity
QVQLVESGGGLVQAGGSLRLICAASGSIFLNYAMGWYRQAPGKERELVASLRRIGGRTFYADSVKGSFTISRDNAKNTVYLQMNSLKPEDTAVYYCAAEYYYGLTVEYWGQGTQVTVSS	high polyreactivity
QVQLVESGGGLVQAGGSLRLICAASGSIFPANVMGWYRQAPGKERELVAVISSSGGRTFYADSVKGRFTISRDNAKNTVYLQMNSLKPDDTAVYYCAATIYDYKRALKYYYWGLGTQVTVSS	high polyreactivity
QVQLVESGGGLVQAGGSLRLICAASGSIFQFYAMGWYRQAPGKERELVAVITTSGVSTYYADSVKGRFTISRDNAKNTDYLQMNSLKPEDTAVYYCAADDYYLAGDYWGQGTQVTVSS	low polyreactivity
QVQLVESGGGLVQAGGSLRLICAASGSIFQPYAMGWYRQAPGKERELVAAINGRGGSTHYADSVKGRFTISRDNAKNTVYLQMNSLKPEDTAVYYCAARYYRDYRWYTYAYDYWGQGTQVTVSS	high polyreactivity

Source: the nanobody polyreactivity screen of Harvey et al. (2022)
